Experimental data: publication PMC5241339
Several values for one entry are separate records, joined by “and”; a condition that tells them apart may be missing. Identical values can stand only once.

What was measured:
CD36 on CHO-CD36 cells [1] = target: CD36 on CHO-CD36 cells (UniProt P16671); assay: radioligand binding; CHO cell lines incubated with [18F]FB-rS100A12 in PBS++ for 90 min at 37 °C, lysed, gamma counter, % ID per protein; blocking with 15-fold excess of rS100A12 or anti-CD36 antibody FA6-152 added 20 min before
Sequence of CD36 on CHO-CD36 cells (P16671 whole entry): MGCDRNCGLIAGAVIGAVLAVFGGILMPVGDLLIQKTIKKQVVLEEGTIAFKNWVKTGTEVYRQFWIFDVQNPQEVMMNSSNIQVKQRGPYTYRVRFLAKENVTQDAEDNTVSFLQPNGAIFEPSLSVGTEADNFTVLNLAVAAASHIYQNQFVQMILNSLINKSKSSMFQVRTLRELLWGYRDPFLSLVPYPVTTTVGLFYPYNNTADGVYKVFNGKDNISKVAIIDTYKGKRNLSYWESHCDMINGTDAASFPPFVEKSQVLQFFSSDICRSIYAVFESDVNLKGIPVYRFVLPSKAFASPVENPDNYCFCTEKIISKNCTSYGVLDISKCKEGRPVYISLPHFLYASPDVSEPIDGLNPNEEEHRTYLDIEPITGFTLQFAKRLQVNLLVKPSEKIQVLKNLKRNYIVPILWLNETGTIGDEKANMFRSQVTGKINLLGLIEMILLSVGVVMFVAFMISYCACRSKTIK

[2] = target: receptor for advanced glycation endproducts (RAGE) on CHO-RAGE cells (UniProt Q15109); assay: as above
Sequence of receptor for advanced glycation endproducts (RAGE) on CHO-RAGE cells (Q15109 23-404): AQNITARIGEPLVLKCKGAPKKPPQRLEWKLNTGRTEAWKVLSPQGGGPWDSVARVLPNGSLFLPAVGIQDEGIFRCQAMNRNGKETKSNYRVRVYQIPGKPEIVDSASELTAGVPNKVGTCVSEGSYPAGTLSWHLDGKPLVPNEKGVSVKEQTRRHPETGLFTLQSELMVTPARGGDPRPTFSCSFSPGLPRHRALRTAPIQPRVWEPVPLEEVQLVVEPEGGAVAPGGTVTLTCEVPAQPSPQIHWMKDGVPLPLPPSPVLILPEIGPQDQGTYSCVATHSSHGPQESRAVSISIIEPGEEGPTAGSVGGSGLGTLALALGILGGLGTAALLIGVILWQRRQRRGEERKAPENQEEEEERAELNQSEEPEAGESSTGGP

[3] = target: CD36 (His-tagged recombinant human protein, Sino Biological, Life technologies, 70-80 kDa) (human) (UniProt P16671); assay: SPR; Biacore T100; CD36 immobilized by amine coupling on a C1 chip (1000 RU); S100A12 species as analyte 0.62-50.0 nM, single cycle kinetics, 30 µL/min, 25 °C; HBS-P+ with 350 µM CaCl2; two-state reaction model
Sequence of CD36 (His-tagged recombinant human protein, Sino Biological, Life technologies, 70-80 kDa) (human) (P16671 30-439): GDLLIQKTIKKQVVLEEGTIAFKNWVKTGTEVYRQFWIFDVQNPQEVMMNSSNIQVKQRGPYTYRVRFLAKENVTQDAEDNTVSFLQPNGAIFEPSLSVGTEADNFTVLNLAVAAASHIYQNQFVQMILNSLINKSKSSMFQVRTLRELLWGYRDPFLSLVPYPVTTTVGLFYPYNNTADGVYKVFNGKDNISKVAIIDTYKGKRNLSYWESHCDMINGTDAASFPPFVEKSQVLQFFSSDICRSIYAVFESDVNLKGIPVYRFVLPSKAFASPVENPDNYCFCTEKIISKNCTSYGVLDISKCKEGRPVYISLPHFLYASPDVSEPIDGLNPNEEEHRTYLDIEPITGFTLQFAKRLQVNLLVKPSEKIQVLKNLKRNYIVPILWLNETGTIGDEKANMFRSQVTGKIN

CD36 on CHO-CD36 cells [4] = target: CD36 on CHO-CD36 cells (UniProt P16671); assay: cell binding of a fluorescent tracer (fluorescence of cell lysates, plate reader); CHO cell lines in 24-well plates incubated with 10 µM fluorescein-rS100A12 for 90 min at 37 °C, lysed, fluorescence per protein; blocking with anti-CD36 antibody FA6-152 10 µg/mL, 30 min before
[5] = target: receptor for advanced glycation endproducts (RAGE) on CHO-RAGE cells (UniProt Q15109); assay: as above

Sequence of 4-[18F]fluorobenzoyl-rS100A12 ([18F]FB-rS100A12) (natural protein) (P80511 2-92): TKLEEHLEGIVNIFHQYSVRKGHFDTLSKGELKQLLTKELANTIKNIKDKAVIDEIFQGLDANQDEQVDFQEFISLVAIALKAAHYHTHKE

Substance	cell association higher than in CHO-K1 cells (CD36 on CHO-CD36 cells [1]) [%]	cell association higher than in CHO-K1 cells [2] [%]	Kd [3]	binding higher than in CHO-K1 cells (CD36 on CHO-CD36 cells [4]) [%]	binding higher than in CHO-K1 cells [5] [%]
4-[18F]fluorobenzoyl-rS100A12 ([18F]FB-rS100A12) (natural protein)	20	40			
fluorescein-labeled rS100A12 (natural protein)			4790 pM	30	50
recombinant S100A12 (rS100A12) (natural protein)			670 pM and 990 pM		
